In publication PMC6745501 (2019):
Substitutions are numbered along the chain they refer to. Where two headings read alike, the source gives them in different places.

T1: COP1^349–675,Lys422Ala WD40 domain (Arabidopsis, UniProt P43254 349-675, Lys422Ala)
T1 sequence: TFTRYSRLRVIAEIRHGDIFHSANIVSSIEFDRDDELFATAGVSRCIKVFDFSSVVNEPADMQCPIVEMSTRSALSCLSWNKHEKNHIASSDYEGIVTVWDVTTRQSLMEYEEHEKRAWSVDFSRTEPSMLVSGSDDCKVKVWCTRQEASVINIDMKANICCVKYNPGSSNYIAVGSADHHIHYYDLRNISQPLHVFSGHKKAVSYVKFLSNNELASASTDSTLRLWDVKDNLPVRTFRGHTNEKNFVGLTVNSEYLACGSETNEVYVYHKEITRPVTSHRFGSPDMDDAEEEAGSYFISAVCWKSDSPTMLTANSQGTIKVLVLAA

T2: UVR8^ValPro/AlaAla (recombinant) (Arabidopsis, UniProt Q9FN03 1-440, ValPro/AlaAla)
T2 sequence: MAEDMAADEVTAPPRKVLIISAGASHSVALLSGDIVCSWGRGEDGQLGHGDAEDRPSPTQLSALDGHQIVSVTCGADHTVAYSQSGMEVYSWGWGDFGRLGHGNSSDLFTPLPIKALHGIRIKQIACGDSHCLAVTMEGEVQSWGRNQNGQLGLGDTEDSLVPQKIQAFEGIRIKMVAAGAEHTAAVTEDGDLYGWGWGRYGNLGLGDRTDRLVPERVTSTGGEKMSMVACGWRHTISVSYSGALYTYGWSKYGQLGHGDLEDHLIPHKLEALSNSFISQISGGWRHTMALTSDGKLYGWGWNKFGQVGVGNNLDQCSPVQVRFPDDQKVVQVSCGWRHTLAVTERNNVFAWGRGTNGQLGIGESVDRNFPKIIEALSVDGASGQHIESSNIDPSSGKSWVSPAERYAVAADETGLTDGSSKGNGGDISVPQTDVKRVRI

T3: COP1^Tyr441Ala WD40 domain (Arabidopsis, UniProt P43254 349-675, Tyr441Ala)
T3 sequence: T1 sequence with A74K, Y93A

B1: full‐length HY5 protein (recombinant) (natural protein)
chain: MQEQATSSLAASSLPSSSERSSSSAPHLEIKEGIESDEEIRRVPEFGGEAVGKETSGRESGSATGQERTQATVGESQRKRGRTPAEKENKRLKRLLRNRVSAQQARERKKAYLSELENRVKDLENKNSELEERLSTLQNENQMLRHILKNTTGNKRGGGGGSNADASL
B2: UVR8^HY5VP chimera (recombinant) (other)
chain: T2 sequence with R406E, Y407I, A408R, V409R, A410V, A411P, D412E, E413F
B3: UVR8^TRIB1VP chimera (recombinant) (other)
chain: MAEDMAADEVTAPPRKVLIISAGASHSVALLSGDIVCSWGRGEDGQLGHGDAEDRPSPTQLSALDGHQIVSVTCGADHTVAYSQSGMEVYSWGWGDFGRLGHGNSSDLFTPLPIKALHGIRIKQIACGDSHCLAVTMEGEVQSWGRNQNGQLGLGDTEDSLVPQKIQAFEGIRIKMVAAGAEHTAAVTEDGDLYGWGWGRYGNLGLGDRTDRLVPERVTSTGGEKMSMVACGWRHTISVSYSGALYTYGWSKYGQLGHGDLEDHLIPHKLEALSNSFISQISGGWRHTMALTSDGKLYGWGWNKFGQVGVGNNLDQCSPVQVRFPDDQKVVQVSCGWRHTLAVTERNNVFAWGRGTNGQLGIGESVDRNFPKIIEALSVDGASGQHIESSNIDPSSGKSWVSPAESDQIVPEY
B4: Arabidopsis COP1^349–675 WD40 domain (domain or fragment)
chain: T1 sequence with A74K

Assays:
[1] = molecular target: T1, COP1^349–675,Lys422Ala WD40 domain; assay: ITC
[2] = molecular target: B4; assay: ITC
[3] = molecular target: B4; assay: ITC
[4] = molecular target: B4
[5] = molecular target: B4
[6] = molecular target: B4
[7] = molecular target: B4
[8] = molecular target: T1, COP1^349–675,Lys422Ala WD40 domain; assay: ITC; remark: listed apart in the source
[9] = molecular target: B4; assay: ITC
[10] = molecular target: T2, UVR8^ValPro/AlaAla (recombinant)
[11] = molecular target: UVR8^HY5C44 chimera (recombinant) (Arabidopsis, UniProt Q9FN03); assay: UV-B-activated chimera
[12] = molecular target: T3, COP1^Tyr441Ala WD40 domain; assay: ITC

Binder: GFGVVPSF [COL3^287–294 VP peptide]
- Kd [1]: 7.8 µM
- Kd [2]: 39 µM

Binder: SDQIVPEY [TRIB1 VP peptide]
- Kd [3]: 1.6 µM

Binder: B1
- koff [4]: 0.0832 s⁻¹
- Kd [5]: 1.2 µM

Binder: B2
- Kd [6]: 0.069 µM
- koff [7]: 0.0532 s⁻¹

Binder: GYGIVPSF [CO^366–373 VP peptide]
- Kd [1]: 21 µM
- Kd [2]: 74 µM

Binder: B3
- Kd [6]: 0.093 µM
- koff [7]: 0.0319 s⁻¹

Binder: RYAVVPDE [UVR8^406–413 VP peptide]
- Kd [8]: 16 µM
- Kd [9]: 190 µM

Binder: EDQMVPSIT [CRY1^544–552 VP peptide]
- Kd [1]: 76 µM
- Kd [2]: 3 µM

Binder: B4
- Kd [10]: 2.2 µM
- Kd [11]: 0.269 µM

Binder: EIRRVPEFGG [HY5^39–48 VP peptide]
- Kd [12]: 230 µM
- Kd [8]: 23 µM
- Kd [9]: 23 µM

Binder: NDQQVPSAV [CRY2^527–535 VP peptide]
- Kd [1]: 560 µM
- Kd [2]: 21 µM
